# Patent US20070178531A1 (BIOCHECK, published 2007)
# Numbering of substitutions follows the chain as printed.
# B1: rabbit monoclonal anti-human Id3, clone #BCH-4/#3-3 (antibody, V domains shown)
# VH: QSVEESGGRLVTPGTPLTLTCTVSGIDLSSYAMSWVRQAPGKGLEWIGVIFPSNNVYYASWAKGRFTISKTSTTVDLKITSPTTEDTATYFCASMGAFDSWGPGTLVTVSS
# VL: QVLTQTPSPVSAAVGGTVTINCQASQSIYNDNDLAWFQQKPGQPPKLLIYDASTLTSGVPSRFKGSGSGTQFTLTISDLDCDDAATYYCAARYSGNIYGFGGGTEVVVK
# notes: Rabbit IgG from a rabbit hybridoma; also called h Id3 MoAb 3-3
# B2: rabbit monoclonal anti-mouse/human Id3, clone #BCH-4/#16-1 (antibody, V domains shown)
# VH: QSVEESGGRLVTPGTPLTLTCTASGFSLSSYYIHWVRQAPGKALEWIGYISDGGTTYYASWAKGRFTISKTSSTTVDLKMTSLTTEDTATYFCARQGFNIWGPGTLVTVSL
# VL: AVLTQTPSPVSAAVGGTVTISCQSSQSVYNNNWLSWFQQKSGQPPKLLIYETSKLESGVPSRFKGSGSGTQFTLTIIDVQCDDAATYYCLGGYWTTSDNNIFGGGTEVVVK
# notes: Rabbit IgG from a rabbit hybridoma; also called m/h Id3 MoAb 16-1
# B3: rabbit monoclonal anti-mouse/human Id3, clone #BCH-4/#17-3 (antibody, V domains shown)
# VH: B2 VH with S30N, Y31V, A43G, G54D, T56A, Y57R, S60T, D77N
# VL: B2 VL with T19S, Y29W, S41P, I77S, I101V
# notes: Rabbit IgG from a rabbit hybridoma; also called m/h Id3 MoAb 17-3; BCH-3/#17-3
# B4: rabbit monoclonal anti-mouse/human Id3, clone #BCH-4/#6-1 (antibody, V domains shown)
# VH: B2 VH with S30N, Y31V, A43G, G54D, T56A, Y57R, S60T, D77N
# VL: B2 VL with T19S, Y29W, S41P, I77S, I101V
# notes: Rabbit IgG from a rabbit hybridoma; also called m/h Id3 MoAb 6-1
# B5: rabbit monoclonal anti-mouse/human Id3, clone #BCH-4/#42-1 (antibody, V domains shown)
# VH: B2 VH
# VL: B2 VL with T95S
# notes: Rabbit IgG from a rabbit hybridoma; also called m/h Id3 MoAb 42-1
# Target: T1, Human Id1: Histidine (human, UniProt P41134 1-155, limits assumed)
# T1 construct: Fusion protein made in E. coli from vector pGW07; also called h-Id1: his; not shown: His tag
# T1 sequence (looked up): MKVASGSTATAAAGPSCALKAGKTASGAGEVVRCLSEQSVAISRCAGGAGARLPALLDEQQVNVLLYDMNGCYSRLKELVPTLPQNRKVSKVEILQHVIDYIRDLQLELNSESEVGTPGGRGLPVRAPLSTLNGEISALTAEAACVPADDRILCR
# Assay: ELISA, Ab 0.500 µg/ml
# Protocol: (§1) The rabbit monoclonal anti-human Id3 (clone #3-3) and the rabbit monoclonal anti-mouse/human Id3 (clones #6-1, 16-1, 17-3, and 42-1) produced in Example 6 were tested reactivity against the following antigens: mouse Id1:His, human Id1:His, mouse Id2:His, human Id2:His, mouse Id3:His, human Id3:His, mouse Id4:His, human Id4:His and GST.
# (§2) 1. Microtiter wells (prepared in accordance with Example 6) were coated (0.1 μg/well) with mouse Id1:His, human Id1:His, human Id2:His, human Id3:His, and 1.0 μg/well with GST. [0155] 2. Antibody Diluent: 0.25% (w/v) BSA in 0.015M KPO₄ Buffer, 0.85% (w/v) NaCl, 0.1% (w/v) NaN₃, pH=7.40 [0156] 3. Rabbit monoclonal anti-human Id3 (clone #3-3) prepared in Example 7 was diluted to […] with the antibody diluent. […] 4. Rabbit monoclonal anti-mouse/human Id3 (clones #6-1, 16-1, 17-3, 42-1) prepared in Example 7 was diluted to 0.005, 0.010, 0.025, 0.05, 0.10, 0.25, and 0.50 μg/ml with the antibody diluent. […] 5. Conjugate Diluent: 50% (v/v) which consists of an aqueous solution containing Fetal Bovine Serum in 0.05 M Tris, 1% (v/v) Proclin-300, pH 7.6. [0159] 6. Conjugate: Goat anti-rabbit IgG (H+L)-HRP conjugate. [0160] 7. TMB reagent. […] 8. Stop solution (1 N HCI). Method
# (§3) 1. Dispense 100 μL of antibody diluent, diluted rabbit monoclonal human Id3, and mouse/human Id3 hybridoma supernatants into appropriate wells. […] 2. Incubate at room temperature with mechanical shaking at 750 rpm for 90 minutes. [0165] 3. Remove the incubation mixture by flicking plate content into an appropriate waste container followed by rinsing the wells 5 times with distilled water. [0166] 4. Strike the wells sharply onto absorbent paper or paper towels to remove all residual water droplets. [0167] 5. Dispense 100 μL of 1:50,000 Goat Anti-Rabbit IgG-HRP Conjugate Reagent into each well. Gently mix for 5 seconds. [0168] 6. Incubate at room temperature with mechanical shaking at 750 rpm for 90 minutes. [0169] 7. Repeat procedures 3 and 4. [0170] 8. Dispense 100 μL of TMB Reagent into each well. Gently mix for 5 seconds. [0171] 9. Incubate at room temperature with mechanical shaking at 750 rpm for 20 minutes. […] 10.
row,Binder,A450 [A450]
1,B1,0.048
2,B2,0.051
3,B3,0.049
4,B4,0.048
5,B5,0.047

# Target: T2, Mouse Id2: Histidine (mouse, UniProt P41136 1-134, limits assumed)
# T2 construct: Fusion protein made in E. coli from vector pGW07; also called m-Id2: His; not shown: His tag
# T2 sequence (looked up): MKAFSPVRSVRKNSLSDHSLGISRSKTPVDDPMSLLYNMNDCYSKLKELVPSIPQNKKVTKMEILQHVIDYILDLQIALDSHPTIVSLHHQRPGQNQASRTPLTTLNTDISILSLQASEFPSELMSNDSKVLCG
# Assay: ELISA, Ab 0.500 µg/ml
# Protocol: as §1, §2, §3
row,Binder,A450 [A450]
1,B1,0.05
2,B2,0.067
3,B3,0.069
4,B4,0.066
5,B5,0.075

# Target: T3, Mouse Id3: Histidine (mouse, UniProt P41133 1-119)
# T3 construct: Fusion protein made in E. coli from vector pGW07; also called m-Id3: His; Mouse Id3 (coated wells); not shown: His tag
# T3 sequence: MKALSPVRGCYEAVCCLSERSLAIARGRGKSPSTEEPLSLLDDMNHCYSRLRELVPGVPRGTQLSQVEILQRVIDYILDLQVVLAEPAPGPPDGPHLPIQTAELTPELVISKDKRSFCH
# Assay: ELISA, Ab 0.500 µg/ml
# Protocol: as §1, §2, §3
row,Binder,A450 [A450]
1,B2,3.61
2,B3,3.74
3,B4,3.81
4,B5,3.63

# Target: T4, Human Id3: Histidine (human, UniProt Q02535 1-119 at identity 1.00))
# T4 construct: Fusion protein made in E. coli from vector pGW07; also called h-Id3: His; Human Id3 (coated wells); not shown: His tag
# T4 chain: T3 sequence with S31G, S33A, T34A, T105A, K112N
# Assay: ELISA, Ab 0.500 µg/ml
# Protocol: as §1, §2, §3
row,Binder,A450 [A450]
1,B2,3.37
2,B3,3.69
3,B4,3.56
4,B5,3.75

# Target: T1, Human Id1: Histidine
# Assay: ELISA, Ab 0.000 µg/ml (blank)
# Protocol: as §1, §2, §3
row,Binder,A450 [A450]
1,B1,0.046
2,B2,0.043
3,B3,0.045
4,B4,0.045
5,B5,0.043

# Target: T2, Mouse Id2: Histidine
# Assay: ELISA, Ab 0.000 µg/ml (blank)
# Protocol: as §1, §2, §3
row,Binder,A450 [A450]
1,B1,0.048
2,B2,0.046
3,B3,0.048
4,B4,0.044
5,B5,0.048

# Target: T5, Human Id2: Histidine (human, UniProt Q02363 1-134, limits assumed)
# T5 construct: Fusion protein made in E. coli from vector pGW07; also called h-Id2: His; not shown: His tag
# T5 sequence (looked up): T2 sequence (looked up) with T60S, V131A
# Assay: ELISA, Ab 0.000 µg/ml (blank)
# Protocol: as §1, §2, §3
row,Binder,A450 [A450]
1,B1,0.043
2,B2,0.049
3,B3,0.043
4,B4,0.045
5,B5,0.044

# Target: T3, Mouse Id3: Histidine
# Assay: ELISA, Ab 0.000 µg/ml (blank)
# Protocol: as §1, §2, §3
row,Binder,A450 [A450]
1,B2,0.044
2,B3,0.047
3,B4,0.047
4,B5,0.047

# Target: T4, Human Id3: Histidine
# Assay: ELISA, Ab 0.000 µg/ml (blank)
# Protocol: as §1, §2, §3
row,Binder,A450 [A450]
1,B2,0.046
2,B3,0.045
3,B4,0.043
4,B5,0.044

# Target: T6, glutathione S-transferase (GST) (UniProt P08515 1-218 = GST)
# T6 construct: also called carrier protein GST
# Assay: ELISA, Ab 0.000 µg/ml (blank)
# Protocol: as §1, §2, §3
# T6 sequence (P08515 whole entry): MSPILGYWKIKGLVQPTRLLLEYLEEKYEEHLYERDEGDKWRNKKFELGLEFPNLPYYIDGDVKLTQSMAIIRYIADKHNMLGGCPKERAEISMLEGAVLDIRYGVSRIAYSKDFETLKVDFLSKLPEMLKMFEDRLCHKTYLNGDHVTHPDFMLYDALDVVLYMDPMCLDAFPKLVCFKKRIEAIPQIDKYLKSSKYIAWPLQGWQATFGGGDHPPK
row,Binder,A450 [A450]
1,B1,0.044
2,B2,0.048
3,B3,0.046
4,B4,0.047
5,B5,0.048
